Laboratory results from US20170183403A1 (UNIVERSIT T Z RICH, published 2017).

How the values were obtained:
Assay in all cases: peptide microarray (RepliTope), 15-mers
Reference peptide no. 1 = biological target: T1, Reference peptide no. 1
T1 construct: hIL-2 15-mer, first library, on microarray; also called peptide 1
T1 peptide: APTSSSTKKTQLQLE
Experimental: (§1) Additional incubations are with unrelated antibodies from the same isotype (mouse control IgG2a/lambda and mouse control IgG2a/kappa), and secondary antibodies (anti-mouse IgG (Thermo 84545, label DL650) or anti-mouse IgG (JIR 115-175-072, Label Cy5)) to assess unspecific binding due to the detection antibody. The experiments are performed essentially as described in Maksimov P, et al. 2012, PLoS One 7:e34212. doi:10.1371/journal. pone. 0034212.
(§2) The determination of peptide-antibody binding was performed by RepliTope-analysis where the peptide microarray (triplicate) was incubated with the primary antibody followed by a fluorescently labelled secondary antibody directed against the Fc-part of the primary one. All steps were performed on a TECAN microarray processing station enabling highly reliable and reproducible washing and incubation steps. After performing the incubation steps and subsequent to the final washing steps (to remove the unbound secondary antibodies) the microarrays were dried using a nitrogen stream and scanned in a high resolution microarray scanning system with appropriate wavelength settings. Control incubations were performed with an unrelated antibody having the same isotype to exclude false positive signals.
(§3) The resulting images were analyzed und quantified using spot-recognition software GenePix (Molecular Devices). For each spot, the mean signal intensity was extracted (between 0 and 65535 arbitrary units). For further data evaluation, the MMC2 values were determined. The MMC2 equals the mean value of all three instances on the microarray. Except the coefficient of variation (CV)—standard-deviation divided by the mean value—is larger 0.5, in this case the mean of the two closest values (MC2) is assigned to MMC2.

Reference peptide no. 2 = biological target: T2, Reference peptide no. 2
T2 construct: hIL-2 15-mer, first library, on microarray; also called peptide 2
T2 peptide: SSSTKKTQLQLEHLL
Experimental: as §1, §2, §3

Reference peptide no. 3 = biological target: T3, Reference peptide no. 3
T3 construct: hIL-2 15-mer, first library, on microarray; also called peptide 3
T3 peptide: TKKTQLQLEHLLLDL
Experimental: as §1, §2, §3

Reference peptide no. 4 = biological target: T4, Reference peptide no. 4
T4 construct: hIL-2 15-mer, first library, on microarray; also called peptide 4
T4 peptide: TQLQLEHLLLDLQMI
Experimental: as §1, §2, §3

Reference peptide no. 7 = biological target: T5, Reference peptide no. 7
T5 construct: hIL-2 15-mer, first library, on microarray; also called peptide 7
T5 peptide: LDLQMILNGINNYKN
Experimental: as §1, §2, §3

Reference peptide no. 8 = biological target: T6, Reference peptide no. 8
T6 construct: hIL-2 15-mer, first library, on microarray; also called peptide 8
T6 peptide: QMILNGINNYKNPKL
Experimental: as §1, §2, §3

Reference peptide no. 13 = biological target: T7, Reference peptide no. 13
T7 construct: hIL-2 15-mer, first library, on microarray; also called peptide 13
T7 peptide: TRMLTFKFYMPKKAT
Experimental: as §1, §2, §3

Reference peptide no. 15 = biological target: T8, Reference peptide no. 15
T8 construct: hIL-2 15-mer, first library, on microarray; also called peptide 15
T8 peptide: KFYMPKKATELKHLQ
Experimental: as §1, §2, §3

Reference peptide no. 16 = biological target: T9, Reference peptide no. 16
T9 construct: hIL-2 15-mer, first library, parental Cys replaced by Ser, on microarray; also called peptide 16
T9 peptide: MPKKATELKHLQSLE
Experimental: as §1, §2, §3

Reference peptide no. 18 = biological target: T10, Reference peptide no. 18
T10 construct: hIL-2 15-mer, first library, parental Cys replaced by Ser, on microarray; also called peptide 18
T10 peptide: ELKHLQSLEEELKPL
Experimental: as §1, §2, §3

Reference peptide no. 22 = biological target: T11, Reference peptide no. 22
T11 construct: hIL-2 15-mer, first library, on microarray; also called peptide 22
T11 peptide: KPLEEVLNLAQSKNF
Experimental: as §1, §2, §3

Reference peptide no. 23 = biological target: T12, Reference peptide no. 23
T12 construct: hIL-2 15-mer, first library, on microarray; also called peptide 23
T12 peptide: EEVLNLAQSKNFHLR
Experimental: as §1, §2, §3

Reference peptide no. 26 = biological target: T13, Reference peptide no. 26
T13 construct: hIL-2 15-mer, first library, on microarray; also called peptide 26
T13 peptide: KNFHLRPRDLISNIN
Experimental: as §1, §2, §3

Reference peptide no. 29 = biological target: T14, Reference peptide no. 29
T14 construct: hIL-2 15-mer, first library, on microarray; also called peptide 29
T14 peptide: LISNINVIVLELKGS
Experimental: as §1, §2, §3

Reference peptide no. 30 = biological target: T15, Reference peptide no. 30
T15 construct: hIL-2 15-mer, first library, on microarray; also called peptide 30
T15 peptide: NINVIVLELKGSETT
Experimental: as §1, §2, §3

Reference peptide no. 31 = biological target: T16, Reference peptide no. 31
T16 construct: hIL-2 15-mer, first library, parental Cys replaced by Ser, on microarray; also called peptide 31
T16 peptide: VIVLELKGSETTFMS
Experimental: as §1, §2, §3

Reference peptide no. 33 = biological target: T17, Reference peptide no. 33
T17 construct: hIL-2 15-mer, first library, parental Cys replaced by Ser, on microarray; also called peptide 33
T17 peptide: KGSETTFMSEYADET
Experimental: as §1, §2, §3

Reference peptide no. 37 = biological target: T18, Reference peptide no. 37
T18 construct: hIL-2 15-mer, first library, on microarray; also called peptide 37
T18 peptide: DETATIVEFLNRWIT
Experimental: as §1, §2, §3

Reference peptide no. 38 = biological target: T19, Reference peptide no. 38
T19 construct: hIL-2 15-mer, first library, parental Cys replaced by Ser, on microarray; also called peptide 38
T19 peptide: ATIVEFLNRWITFSQ
Experimental: as §1, §2, §3

Reference peptide no. 44 = biological target: T20, Reference peptide no. 44
T20 construct: second library: peptide 12 with F(62) to Ala; also called peptide 44
T20 peptide: PKLTRMLTAKFYMPK
Experimental: as §1, §2, §3

Reference peptide no. 46 = biological target: T21, Reference peptide no. 46
T21 construct: second library: peptide 14 with F(62) to Ala; also called peptide 46
T21 peptide: LTAKFYMPKKATELK
Experimental: as §1, §2, §3

Reference peptide no. 50 = biological target: T22, Reference peptide no. 50
T22 construct: second library: peptide 14 with Y(65) to Ala; also called peptide 50
T22 peptide: LTFKFAMPKKATELK
Experimental: as §1, §2, §3

Reference peptide no. 51 = biological target: T23, Reference peptide no. 51
T23 construct: second library: peptide 15 with Y(65) to Ala; also called peptide 51
T23 peptide: KFAMPKKATELKHLQ
Experimental: as §1, §2, §3

Reference peptide no. 59 = biological target: T24, Reference peptide no. 59
T24 construct: second library: peptide 23 with L(92) to Ala; also called peptide 59
T24 peptide: EEVLNAAQSKNFHLR
Experimental: as §1, §2, §3

Measured: binding result

B1: NARA1 (antibody, mouse IgG2a, kappa, V domains shown)
VH: QVQLQQSGAELVRPGTSVKVSCKASGYAFTNYLIEWVKQRPGQGLEWIGVINPGSGGTNYNEKFKGKATLTADKSSSTAYMQLSSLTSDDSAVYFCARWRGDGYYAYFDVWGAGTTVTVSS
VL: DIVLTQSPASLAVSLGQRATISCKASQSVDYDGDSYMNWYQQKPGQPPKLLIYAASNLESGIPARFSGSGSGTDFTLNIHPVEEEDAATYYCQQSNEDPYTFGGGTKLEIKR
notes: Mouse monoclonal from hybridoma; Isotype controls used were mouse IgG2a; also called anti-IL2 (NARA1) antibody; monoclonal antibody NARA1
no binding: all assays above
